According to patent publication US20260109776A1 (Amgen, published 2026):
Read-outs that look alike come from different tables or passages of the source.

Assays:
human CD40 on cells [1] = molecular target: T1, human CD40 on cells (human, UniProt P25942 21-277); experiment: flow cytometry, labelled CD40L on CD40-293T cells, antibody at 10 ug/ml
T1 construct: also called CD40 receptor on human B cells
Procedure: (§1) Percent ligand binding inhibition was calculated as [(CD40L binding gMFI in the absence of anti-CD40)−(CD40L binding gMFI in the presence of anti-CD40)]/(CD40L binding gMFI in the absence of anti-CD40). gMFI: geometric mean fluorescent intensity. All anti-CD40 antibodies show minimal effects on the ability of CD40L to bind to the CD40 receptor (Table 7).

mouse CD40 on cells = molecular target: T2, mouse CD40 on cells (mouse, UniProt P27512 20-289); experiment: flow cytometry, HEK293 transfectants
T2 construct: whole, on cells; also called mouse CD40 on HEK293 cells; CD40 on mouse B cells
T2 sequence (looked up): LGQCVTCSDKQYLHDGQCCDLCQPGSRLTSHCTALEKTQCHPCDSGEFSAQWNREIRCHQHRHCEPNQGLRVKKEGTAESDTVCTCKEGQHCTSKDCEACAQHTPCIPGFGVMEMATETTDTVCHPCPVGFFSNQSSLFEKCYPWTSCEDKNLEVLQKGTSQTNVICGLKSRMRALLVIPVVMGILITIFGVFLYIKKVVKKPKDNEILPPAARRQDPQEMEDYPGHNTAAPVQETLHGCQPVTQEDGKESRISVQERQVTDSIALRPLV

cynomolgus monkey CD40 = molecular target: T3, cynomolgus monkey CD40 (cynomolgus monkey, UniProt P25942 21-193 (human entry), limits assumed); experiment: Octet
T3 chain: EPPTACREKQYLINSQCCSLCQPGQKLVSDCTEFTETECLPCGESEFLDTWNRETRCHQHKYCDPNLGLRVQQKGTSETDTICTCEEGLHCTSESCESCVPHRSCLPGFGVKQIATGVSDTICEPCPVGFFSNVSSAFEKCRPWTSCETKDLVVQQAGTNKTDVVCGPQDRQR
Procedure: (§2) The binding affinity of anti-human CD40 antibodies to human and cynomolgus monkey CD40 was measured by Octet assay (Table 3), quantifying association rate (Kon), disassociation rate (Kdis), and equilibrium binding constant (KD). Cross-reactivity of anti-CD40 antibodies to related TNF receptor superfamily (TNFRSF) members was evaluated by expressing human TNFR1, TNFR2, TNFR10, or TNFR14 on HEK293 cells by transient transfection of expression vectors encoding these genes. Binding of indicated anti-human CD40 antibody to these transfected cells was determined by flow cytometry. […] Cross-reactivity of anti-CD40 antibodies to cynomolgus monkey and mouse CD40 was evaluated by expressing cynomolgus monkey or mouse CD40 on HEK293 cells by transient transfection of expression vectors encoding these genes. Binding of indicated anti-human CD40 antibody to cells overexpressing cynomolgus monkey and mouse CD40 was determined by flow cytometry.

human CD40 = human CD40 (human, UniProt P25942 21-193, limits assumed); experiment: Octet
Procedure: as §2

human CD40 on cells [2] = molecular target: T1, human CD40 on cells; experiment: flow cytometry, labelled CD40L on CD40-293T cells, antibody at 2.5 ug/ml
Procedure: as §1

human CD40 on cells [3] = molecular target: T1, human CD40 on cells; experiment: cell-based or functional assay
human CD40 on cells [4] = molecular target: T1, human CD40 on cells; experiment: cell-based or functional assay; remark: listed apart in the source

T1 sequence (P25942 21-277 limits assumed): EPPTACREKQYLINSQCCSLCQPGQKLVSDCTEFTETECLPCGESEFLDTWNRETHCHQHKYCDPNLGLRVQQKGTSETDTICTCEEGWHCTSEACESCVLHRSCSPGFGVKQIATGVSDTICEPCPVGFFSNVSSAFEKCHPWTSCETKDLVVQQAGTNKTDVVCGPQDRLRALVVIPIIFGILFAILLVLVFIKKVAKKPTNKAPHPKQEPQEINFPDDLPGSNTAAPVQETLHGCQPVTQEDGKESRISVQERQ
Sequence of human CD40 (P25942 21-193 limits assumed): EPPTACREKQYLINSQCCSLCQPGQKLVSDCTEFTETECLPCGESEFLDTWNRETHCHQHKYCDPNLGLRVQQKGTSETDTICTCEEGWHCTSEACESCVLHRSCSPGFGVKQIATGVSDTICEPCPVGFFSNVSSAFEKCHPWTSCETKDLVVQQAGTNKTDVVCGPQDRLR

B1: 30A12 (antibody, IgG4, V domains shown)
VH: EVQLLESGGGLVQPGGSLRLSCAASGFTFSRNAMSWVRQAPGKGLEWVSATGGSGISTYYADSVKGRFTISRDNSKNTLYLQMNSLRAEDTAVYYCARGYSNSWWYFDYWGQGTLVTVSS
VL: QSALTQPASVSGSPGQSITISCTGTSSDVGNYNLVSWYQQHPGKAPKLMIFEVNQRPSGVSNRFSGSKSGTTASLTISGLQAADEADYFCCSYTTSSTYVIFGGGTKLTVLG
notes: also called 4878-1
Human CD40 on cells [1]
  Ligand Binding Inhibition (%): -8%
Mouse CD40 on cells
  binding result: no binding
Cynomolgus monkey CD40
  Kd: 560 pM
  koff: 0.000306 s⁻¹
  kon: 544000 M⁻¹ s⁻¹
Human CD40
  Kd: 690 pM
  koff: 0.000368 s⁻¹
  kon: 533000 M⁻¹ s⁻¹
Human CD40 on cells [2]
  Ligand Binding Inhibition (%): -16%
Human CD40 on cells [3]
  human B cell proliferation, no crosslinking, % Max Activity: 8.6%
  human B cell proliferation, no crosslinking, EC50: > 16700 pM
  human B cell proliferation, with protein G crosslinking, % Max Activity: 89.1%
  human B cell proliferation, with protein G crosslinking, EC50: 400 pM
Human CD40 on cells [4]
  human B cell proliferation, no crosslinking, EC50: > 16700 pM
  human B cell proliferation, no crosslinking, Max Fold Change: 1.45 fold
  human B cell proliferation, with protein G crosslinking, EC50: 362 pM
  human B cell proliferation, with protein G crosslinking, Max Fold Change: 23.8 fold
